Values joined by “and” are separate entries in the source; they are usually repeats but may differ in a detail not shown here. Identical values can stand only once. Marks after values point to notes of the source that are not given here.
Legend:
melanoma = experiment: in vitro inhibition effect on melanoma, WST-1 method; type: cell-based; conditions: 24 h, x ± s, n = 9
Experimental: In vitro experiment: testing the inhibition effect of the fusion protein rLZ-8-HSA on the melanoma through a WST-1 method, preparing tissue suspension of the melanoma; adding 100 μl the tissue suspension into 900 μl 2% glacial acetic acid and counting with a microscope; adjusting a tissue concentration to 2×10^5/ml with DMEM comprising 2% calf serum; respectively preparing the fusion protein rLZ-8-HSA and the rLZ-8 with same molar concentration gradient, wherein there are 3 gradient concentrations, each concentration occupies 9 wells with 100 μl per well; adding tissue suspension with a concentration of 2×10^5/ml with 100 μl per well; shaking for evenly mixing, and then putting into a 37° C., 5% CO2 incubation device to incubate for 24 h; after incubation, adding WST-1 with 20 μl per well; putting into the 37° C., 5% CO2 incubation device to incubate for 3 h, then testing OD450 (with a BIO-RAD); wherein results are listed in table 3.

[1] = system: mouse transplanted tumor S180; experiment: subcutaneous inhibition of mouse transplanted tumor S180; type: in vivo; conditions: tail vein, 10 days
Experimental: In vivo experiment: experimental material: mice weighing 18-22 g from Laboratory Animal Center of Jilin University; Ehrlich ascites tumor cell strains are provided by a lab of the inventor; cytoxan (CTX) is from Jiangsu Hengrui Medicine Co., Ltd, whose batch number is 06101921; 5180 ascites tumor and soild tumor experimental groups respectively comprises a normal control group, a negative control group, a positive control group, an rLZ-8 low-dosage group (0.25 mg·kg^−1), an rLZ-8 middle-dosage group (0.5 mg·kg^−1), an rLZ-8 high-dosage group (1 mg·kg^−1), an rLZ-8-HSA low-dosage group (0.25 mg·kg^−1), an rLZ-8-HSA middle-dosage group (0.5 mg·kg^−1), and an rLZ-8-HSA high-dosage group (1 mg·kg^−1), wherein dosages of the rLZ-8-HSA groups are judged from LZ-8 dosage, wherein each group comprises 10 mice.
tumor inhibition rate (%)=(average tumor weight of control groups−average tumor weight of experimental groups)/average tumor weight of control groups×100%.

platelets = experiment: treatment of mouse thrombocytopenia caused by cyclophosphamide, platelet count; type: in vivo; conditions: for platelets after: after cyclophosphamide, before treatment; for platelets before: baseline before cyclophosphamide
Experimental: Experimental medicine: preparing a 19.25 μg·kg^−1 and a 9.625 μg·kg^−1 dosage groups of the recombinant ganoderma immunoregulatory protein (rLZ-8) with sterile injection water, and 0.2 ml per mouse; and preparing a 19.25 μg·kg^−1 and a 9.625 μg·kg^−1 dosage groups (judging from the LZ-8) of the fusion protein rLZ-8-HSA of the recombinant ganoderma immunoregulatory protein.
Positive control medicine: thrombopoietin (THPO) from Shenyang 3SBio Inc., with a dosage of 770 μg·kg^−1/d and 0.2 ml per mouse.
Chemotherapy medicine: cyclophosphamide (Cy) from Jiangsu Hengrui Medicine Co., Ltd, whose batch number is 12112121, 200 mg/bottle; preparing into 100 mg·kg^−1, 0.2 ml per mouse with sterile injection water.
Platelet dilution: urea: 1.3 g; sodium citrate: 0.5 g; formaldehyde: 0.1 ml; adding distilled water to 100 ml for mixing, then filtering for further utilization.
Experimental method: dividing experimental animals into 5 groups, wherein each group comprises 10 mice with 5 males and 5 females; except for a normal control group (injected with normal saline having an equal volume), abdominally injecting the cyclophosphamide to the mice with a dosage of 100 mg·kg^−1, 0.2 ml per mouse per day, and lasting for three days; when a platelet quantity decreased to below 300×10^9/L, subcutaneously injecting the rLZ-8, the fusion protein rLZ-8-HAS (19.25 μg·kg^−1, 9.625 μg·kg^−1, 0.2 ml·per mouse per day) and the positive medicine (THPO 770 μg·kg^−1, 0.2 ml·per mouse per day) according to the above groups with corresponding dosages, and injecting the normal saline having the equal volume to the normal control group and a CP group; respectively sampling mouse tail vein blood 3 d, 7 d and 14 d after treatment, counting platelets with high power lens, wherein results thereof are listed in table 7.

mouse spleen cells = experiment: promotion of mouse spleen cell proliferation, WST-1 method; type: cell-based; conditions: for OD450, promotion of cell proliferation: 24 h, x ± s, n = 9
Experimental: Testing effects of the fusion proteins on mouse spleen cell proliferation by a WST-1 method, which illustrates strength of biological activity, wherein according to the present invention, BALB/c female mice are used, whose weight is controlled at 20-22 g; executing the mice by stretching necks thereof, taking out spleens under a sterile condition, and putting into a plate with 5 ml DMEM comprising 10% calf serum; cracking the spleens with tweezers, filtering tissue suspension with gauze for removing tissue blocks, and preparing cell suspension of spleen cells; adding 100 μl the tissue suspension into 900 μl 2% glacial acetic acid for counting with a microscope; adjusting a cell concentration to 5×10^6/ml with DMEM comprising 2% calf serum; respectively preparing the fusion proteins and the rLZ-8 with same molar concentration gradient, wherein there are 3 gradient concentrations, each concentration occupies 9 wells with 100 μl per well; adding tissue suspension with a concentration of 5×10^6/ml with 100 μl per well; shaking for evenly mixing, and then putting into a 37° C., 5% CO2 incubation device to incubate for 24 h; after incubation, adding WST-1 with 20 μl per well; putting into the 37° C., 5% CO2 incubation device to incubate for 3 h, then testing OD450 (with a BIO-RAD); wherein results are listed in table 1.

[2] = low-dosage 0.25 mg·kg^−1 (LZ-8)
[3] = middle-dosage 0.5 mg·kg^−1 (LZ-8)
[4] = 9.625 μg·kg^−1 (LZ-8) subcutaneously per day
[5] = 19.25 μg·kg^−1 (LZ-8) subcutaneously per day

Molecule | OD450, inhibition effect on melanoma (melanoma; protein 5.0 × 10^−9 mol/L) | OD450, inhibition effect on melanoma (melanoma; protein 10.0 × 10^−9 mol/L) | OD450, inhibition effect on melanoma (melanoma; protein 15.0 × 10^−9 mol/L) | Inhibition rate ([1]; high-dosage 1 mg·kg^−1 (LZ-8)) | tumor weight ([1]; high-dosage 1 mg·kg^−1 (LZ-8)) | Inhibition rate [1, 2] | tumor weight [1, 2] | Inhibition rate [1, 3] | tumor weight [1, 3] | platelets 3rd day (platelets; [4]) | platelets 7th day (platelets; [4]) | platelets 14th day (platelets; [4]) | platelets after (platelets; 9.625 μg·kg^−1 group) | platelets before (platelets; 9.625 μg·kg^−1 group) | platelets 3rd day (platelets; [5]) | platelets 7th day (platelets; [5]) | platelets 14th day (platelets; [5]) | platelets after (platelets; 19.25 μg·kg^−1 group) | platelets before (platelets; 19.25 μg·kg^−1 group) | OD450, promotion of cell proliferation (mouse spleen cells; protein 5.0 × 10^−9 mol/L) | further results
rLZ-8-HSA: fusion protein of ganoderma immunoregulatory protein (LZ-8) and human serum albumin, linker GGGGSS, SEQ ID NO. 1 (protein, rLZ-8-HSA sequence) SDTALIFRLAWDVKKLSFDYTPNWGRGNPNNFIDTVTFPKVLTDKAYTYRVAVSGRNLGVKPSYAVESDGSGKVNFLEYNSGYGIADTNTIGVFVVDPDTNNDFIIAGWNGGGGSSMKWVTFISLLFLFSSAYSRGVFRRDAHKSEVAHRFKDLGEENFKALVLIAFAGYLGGCPFEDHVKLVNEVTEFAKTCVADESAENCDKSLHTLFGDKLCTVATLRETYGEMADCCAKGEPERNECFLGHKDDNPNLPRLVRPEVDVMCTAFHDNEETFLKKYLYEIARRHPYFYAPELLFFAKRYKAAFTECCGAADKAACLLPKLDELRDEGKASSAKGRLKCASLGKFGERAFKAWAVARLSGRFPKAEFAEVSKLVTDLTKVHTECCHGDLLECADDRADLAKYICENGDSISSKLKECCEKPLLEKSHCIAEVENDEMPADLPSLAADFVESKDVCKNYAEAKDVFLGMFLYEYARRHPDYSVVLLLRLAKTYETTLEKCCAAADPHECYAKVFDEFKPLVEEPGNLIKGNCELFEGLGEYKFGNALLVRYTKKVPGVSTPTLVEVSRNLGKVGSKCCKHPEAKRMPCAEDYLSVVLNGLCVLHEKTPVSDRVTKCCTESLVNRRPCFSALEVDETYVPKEFNAETFTFHADICTLSEKERGIKKGTALVELVKHKPKATKEGLKAVMDDFAAFVEKCCKADDKETCFAEEGKKLVAASGAALGL | 0.411 ± 0.31 | 0.212 ± 0.29 | 0.118 ± 0.11 | 29.3% | 0.21 ± 0.08 g | 27.7% | 0.73 ± 0.03 g | 56.4% | 0.44 ± 0.05 g | 624 ± 0.43* *10^9/L | 697 ± 0.43* *10^9/L | 929 ± 0.61** *10^9/L | 261 ± 0.52 *10^9/L | 843 ± 0.65 *10^9/L | 760 ± 0.38* *10^9/L | 978 ± 0.67* *10^9/L | 1035 ± 0.78** *10^9/L | 246 ± 0.36 *10^9/L | 852 ± 0.82 *10^9/L | 0.936 ± 0.31 | platelet recovery compared with the CP group (platelets; rLZ-8-HSA groups, p<0.05): returned to normal at the third day; OD450, promotion of cell proliferation (mouse spleen cells; protein 10.0 × 10^−9 mol/L): 1.680 ± 0.38; OD450, promotion of cell proliferation (mouse spleen cells; protein 15.0 × 10^−9 mol/L): 2.373 ± 0.35; promotion of spleen cell proliferation compared with rLZ-8 (mouse spleen cells; same protein concentration): better than the rLZ-8
rLZ-8: recombinant ganoderma immunoregulatory protein which is not fused, comparator (protein, UniProt P14945 2-111, looked up) Immunomodulatory protein Ling …: SDTALIFRLAWDVKKLSFDYTPNWGRGNPNNFIDTVTFPKVLTDKAYTYRVAVSGRNLGVKPSYAVESDGSQKVNFLEYNSGYGIADTNTIQVFVVDPDTNNDFIIAQWN | 0.427 ± 0.44 | 0.372 ± 0.21 | 0.302 ± 0.24 | 45.5% and 43.5% | 0.57 ± 0.03 g | 16.8% and 17.8% | 0.83 ± 0.03 g | 25.7% and 26.7% | 0.74 ± 0.02 g | 483 ± 0.45 *10^9/L | 585 ± 0.78 *10^9/L | 898 ± 0.61* *10^9/L | 201 ± 0.41 *10^9/L | 839 ± 0.40 *10^9/L | 501 ± 0.48 *10^9/L | 680 ± 0.28 *10^9/L | 1021 ± 0.31** *10^9/L | 226 ± 0.78 *10^9/L | 946 ± 0.45 *10^9/L | 0.739 ± 0.23 | OD450, promotion of cell proliferation (mouse spleen cells; protein 10.0 × 10^−9 mol/L): 1.197 ± 0.31; OD450, promotion of cell proliferation (mouse spleen cells; protein 15.0 × 10^−9 mol/L): 1.567 ± 0.27
